Data from patent US7018812 (DUKE UNIVERSITY, dated 2006).
Bridges are numbered along the chain shown (N, C = ends). Where no end group is shown, it is not given here.

T1: V2R-β2AR chimera (human)
T1 construct: Whole receptor on HEK-293 cells; also called V2-β2AR; V2R-p2AR
T1 chain: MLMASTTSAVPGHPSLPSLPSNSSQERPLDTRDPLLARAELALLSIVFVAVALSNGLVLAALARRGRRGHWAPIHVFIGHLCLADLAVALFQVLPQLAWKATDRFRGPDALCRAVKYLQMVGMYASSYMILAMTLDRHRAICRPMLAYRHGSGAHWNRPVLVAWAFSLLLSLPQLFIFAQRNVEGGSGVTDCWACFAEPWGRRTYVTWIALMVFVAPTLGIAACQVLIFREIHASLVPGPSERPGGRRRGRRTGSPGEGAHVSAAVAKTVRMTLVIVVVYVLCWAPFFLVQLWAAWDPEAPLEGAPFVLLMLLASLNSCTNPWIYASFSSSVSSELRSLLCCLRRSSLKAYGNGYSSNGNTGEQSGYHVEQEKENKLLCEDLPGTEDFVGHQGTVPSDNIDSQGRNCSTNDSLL


Experiments:
[1] = biological target: wild-type β2AR receptor (β2-adrenergic receptor), HA-tagged (Homo sapiens (Human)) (UniProt P07550); assay: cell-based or functional assay
V2R-β2AR chimera [2] = biological target: T1, V2R-β2AR chimera; assay: cell-based or functional assay
[3] = biological target: wild-type V2R receptor (vasopressin V2 receptor), HA-tagged (human) (UniProt P30518); assay: cell-based or functional assay
[4] = biological target: β2AR-V2R chimera (Homo sapiens (Human)) (UniProt P07550); assay: cell-based or functional assay
V2R-β2AR chimera [5] = biological target: T1, V2R-β2AR chimera; assay: [3H]AVP binding to membrane proteins of transfected HEK-293 cells; affinity not given
Protocol: Membrane proteins (10 μg) from transfected HEK-293 cells expressing the V2R and V2R-β_2AR chimera were incubated in PBS containing 2% BSA at room temperature with increasing concentrations of [^3H] […] Binding was terminated by rapid filtration and consecutive washes with ice-cold wash buffer ([…], 50 mM Tris-HCl, pH=7.2).

[6] = scale: % of Vmax measured under Naive conditions

| Molecule | internalized receptor recycled back to the plasma membrane 60 min after agonist removal (flow cytometry) [1] | reduction in receptor phosphorylation 60 min after agonist removal (32P, immunoprecipitation) [1] | recovery of Vmax of adenylyl cyclase activity one hour after agonist removal (resensitization) [1, 6] | internalized receptor recycled back to the plasma membrane 60 min after agonist removal (flow cytometry) (V2R-β2AR chimera [2]) | reduction in receptor phosphorylation 60 min after agonist removal (32P, immunoprecipitation) (V2R-β2AR chimera [2]) | recovery of Vmax of adenylyl cyclase activity one hour after agonist removal (resensitization) (V2R-β2AR chimera [2]; [6]) | impairment of recovery of Vmax of adenylyl cyclase activity one hour after agonist removal (resensitization) [3] | internalized receptor recycled back to the plasma membrane 60 min after agonist removal (flow cytometry) [3] | reduction in receptor phosphorylation 60 min after agonist removal (32P, immunoprecipitation) [3] | change in receptor phosphorylation 60 min after agonist removal (32P, immunoprecipitation) [4] | impairment of recovery of Vmax of adenylyl cyclase activity one hour after agonist removal (resensitization) [4] | internalized receptor recycled back to the plasma membrane 60 min after agonist removal (flow cytometry) [4] | binding result (V2R-β2AR chimera [5]) |
| --- | --- | --- | --- | --- | --- | --- | --- | --- | --- | --- | --- | --- | --- |
| β-arrestin | 65% | 48 % reduction | 100 | 89% | 67 % reduction | 102 | 54% | 23% | 3 % decrease | 12 % increase | 66% | 11% |  |
| CYFQNCPRG-NH2 (peptide, UniProt P01185 20-28, looked up, disulfide 1-6 (inferred); ends not checked; also: tritium label ([3H]AVP), place not given here, mature; only the hormone peptide stood in the assay; also called AVP; [3H]AVP) [arginine vasopressin] |  |  |  |  |  |  |  |  |  |  |  |  | binds |
